# Experimental data published in patent US20200407467.
# Experiments:
# [1] = system: Fibrinogen (peptides of the human library)
# [2] = system: T7-SEPARATE PreScission-cleavable clone, multivalent display (mid-copy vector)
# [3] = system: uncleavable negative control clone (randomly selected 90-aa human peptide from the proteome library)
# [4] = system: T7-SEPARATE PreScission-cleavable clone, monovalent display (T7Select1-2b)
substance,measurement,setting,value
Thrombin,enrichment in SEPARATE (human library digest),[1],"did not score in the assay, and this was true for other canonical enzyme-substrate pairs such as Thrombin/Fibrinogen"
"PreScission enzyme (human rhinovirus 3C protease, GE Life Sciences)","phage particles recaptured, percent of pre-immobilized phage particles",[2],"up to 24% and 22.5%, respectively"
same,"phage particles released, percent of pre-immobilized phage particles",[2],"up to 24% and 22.5%, respectively"
same,signal-to-noise ratio (highest PreScission concentration versus mock digest),[2],11.9
same,"phage particles recaptured, percent of immobilized phage particles",[3],"~1% of the immobilized phage particles were similarly recaptured, whether the PreScission enzyme was included in the digest reaction or not"
same,"phage particles recaptured, percent of pre-immobilized phage particles",[4],"up to 53% and 43%, respectively"
same,"phage particles released, percent of pre-immobilized phage particles",[4],up to 53%
same,"recapture of the cleavable peptide spiked 1 to 100 into the human library, fold increase versus mock digest",[4],26-fold increase
same,signal-to-noise ratio (highest PreScission concentration versus mock digest),[4],23.4
